This note sets out measurements from paper PMC3058826 (Nature, 2010).

In the test the target is T1, TRIM24 PHD-Bromo C840W (human, UniProt O15164 824-1006, C840W).
T1 sequence: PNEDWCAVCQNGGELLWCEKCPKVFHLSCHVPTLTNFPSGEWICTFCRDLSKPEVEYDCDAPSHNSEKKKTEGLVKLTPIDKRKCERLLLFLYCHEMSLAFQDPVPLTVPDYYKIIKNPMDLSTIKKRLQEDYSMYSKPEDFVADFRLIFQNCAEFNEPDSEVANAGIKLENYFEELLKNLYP
As to the kind of experiment: ITC. (In general: ITC needs no label: the signal is the heat of the interaction.)

As usually defined, the Kd is the concentration at which binding is half-saturated.

Regarding ARTKQTARKSTGGKA [H3(1–15)K4 peptide], the Kd was over 400 µM.
